# Paper PMC2688388
# Molecular target: mCeruleanC-α1C,77 (human Cav1.2 calcium channel α1C,77 subunit labeled at the C-tail with mCerulean) (human)
# Experiment: FRET or BRET; two-color FRET (mCerulean/tagRFP) epifluorescence microscopy in COS1 cells, control for cascade transfer: Rβ3 and α1CC without Vα1C
# Sequence of mCeruleanC-α1C,77 (human Cav1.2 calcium channel α1C,77 subunit labeled at the C-tail with mCerulean) (human) (Q13936 whole entry): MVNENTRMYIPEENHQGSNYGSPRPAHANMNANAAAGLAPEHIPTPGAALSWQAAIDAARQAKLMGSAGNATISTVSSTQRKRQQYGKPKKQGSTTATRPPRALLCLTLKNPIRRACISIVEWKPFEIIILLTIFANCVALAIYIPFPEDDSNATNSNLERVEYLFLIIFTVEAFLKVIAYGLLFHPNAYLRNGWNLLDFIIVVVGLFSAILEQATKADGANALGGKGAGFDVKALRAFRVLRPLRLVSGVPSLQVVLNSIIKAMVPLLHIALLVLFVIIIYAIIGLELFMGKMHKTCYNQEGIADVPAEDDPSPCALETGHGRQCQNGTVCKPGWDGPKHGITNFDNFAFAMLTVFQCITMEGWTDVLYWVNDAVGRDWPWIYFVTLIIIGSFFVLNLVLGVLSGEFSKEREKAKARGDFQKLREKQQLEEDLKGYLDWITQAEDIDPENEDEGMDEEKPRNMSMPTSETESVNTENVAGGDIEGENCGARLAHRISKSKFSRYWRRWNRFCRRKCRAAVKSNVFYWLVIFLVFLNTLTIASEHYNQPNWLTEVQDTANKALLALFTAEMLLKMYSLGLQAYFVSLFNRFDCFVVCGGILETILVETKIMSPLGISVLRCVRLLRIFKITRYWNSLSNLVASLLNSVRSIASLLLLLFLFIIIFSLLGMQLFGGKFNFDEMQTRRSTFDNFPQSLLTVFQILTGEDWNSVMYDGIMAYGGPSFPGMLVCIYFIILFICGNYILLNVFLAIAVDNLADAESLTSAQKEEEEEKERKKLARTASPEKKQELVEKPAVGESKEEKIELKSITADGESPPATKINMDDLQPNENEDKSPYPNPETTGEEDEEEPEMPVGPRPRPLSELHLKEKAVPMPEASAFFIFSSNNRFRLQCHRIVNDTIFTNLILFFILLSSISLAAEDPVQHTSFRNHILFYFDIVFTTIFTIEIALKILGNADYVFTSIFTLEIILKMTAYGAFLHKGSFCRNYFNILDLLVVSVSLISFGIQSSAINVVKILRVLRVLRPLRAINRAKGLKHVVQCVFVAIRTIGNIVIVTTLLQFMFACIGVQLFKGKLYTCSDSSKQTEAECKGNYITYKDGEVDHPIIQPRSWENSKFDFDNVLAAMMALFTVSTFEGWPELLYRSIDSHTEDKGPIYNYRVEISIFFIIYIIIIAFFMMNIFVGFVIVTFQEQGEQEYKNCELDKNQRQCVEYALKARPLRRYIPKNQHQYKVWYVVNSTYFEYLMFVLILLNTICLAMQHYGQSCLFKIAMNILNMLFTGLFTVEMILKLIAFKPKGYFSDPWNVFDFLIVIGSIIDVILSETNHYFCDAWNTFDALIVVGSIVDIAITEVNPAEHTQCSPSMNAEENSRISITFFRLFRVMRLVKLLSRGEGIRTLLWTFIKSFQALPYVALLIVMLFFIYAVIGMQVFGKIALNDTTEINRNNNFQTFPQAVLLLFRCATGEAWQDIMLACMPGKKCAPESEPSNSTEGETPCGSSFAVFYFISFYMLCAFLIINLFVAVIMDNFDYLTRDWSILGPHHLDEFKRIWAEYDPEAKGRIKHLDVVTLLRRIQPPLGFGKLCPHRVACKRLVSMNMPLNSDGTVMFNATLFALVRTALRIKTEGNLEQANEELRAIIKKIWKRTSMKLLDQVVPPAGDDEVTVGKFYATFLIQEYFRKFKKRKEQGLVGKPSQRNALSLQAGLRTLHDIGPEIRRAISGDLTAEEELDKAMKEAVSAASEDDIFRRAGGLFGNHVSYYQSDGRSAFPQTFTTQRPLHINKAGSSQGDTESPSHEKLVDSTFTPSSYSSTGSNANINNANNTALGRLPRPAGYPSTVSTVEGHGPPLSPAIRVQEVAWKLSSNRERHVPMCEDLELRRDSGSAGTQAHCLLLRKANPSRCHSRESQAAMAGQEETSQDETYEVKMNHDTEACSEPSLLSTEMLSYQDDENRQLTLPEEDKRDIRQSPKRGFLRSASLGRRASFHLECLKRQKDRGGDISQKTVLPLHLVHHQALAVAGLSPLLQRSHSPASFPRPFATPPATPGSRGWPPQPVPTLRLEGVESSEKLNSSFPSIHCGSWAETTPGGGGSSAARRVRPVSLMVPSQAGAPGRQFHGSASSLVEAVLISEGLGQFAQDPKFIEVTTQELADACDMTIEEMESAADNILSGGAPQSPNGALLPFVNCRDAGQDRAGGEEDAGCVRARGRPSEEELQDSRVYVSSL
substance,measurement,value
RFP-β3 (human Cavβ3 subunit with tagRFP fused to the N-terminus) (from UniProt P54284 1-484) (natural protein),FRET efficiency,0.05
